Measured values as given in paper PMC7810697, “Sarcolipin alters SERCA1a interdomain communication by impairing binding of both calcium and ATP” (Scientific Reports, 2021).

What was measured:
[1] = molecular target: native SERCA1a in DDM-solubilized rabbit sarco-endoplasmic reticulum membranes (rabbit) (UniProt P04191)
[2] = molecular target: recombinant wild-type rabbit SERCA1a (sarco-endoplasmic reticulum Ca2+-ATPase, isoform 1a) expressed in S. cerevisiae (rabbit) (UniProt P04191)
[3] = molecular target: native SERCA1a in DDM-solubilized rabbit sarco-endoplasmic reticulum membranes (rabbit) (UniProt P04191); remark: listed apart in the source
[4] = molecular target: recombinant wild-type rabbit SERCA1a (sarco-endoplasmic reticulum Ca2+-ATPase, isoform 1a) expressed in S. cerevisiae (rabbit) (UniProt P04191); remark: listed apart in the source

recombinant wild-type rabbit SERCA1a (sarco-endoplasmic reticulum Ca2+-ATPase, isoform 1a) expressed in S. cerevisiae (rabbit), sequence (P04191 other isoform, or with tags, fused parts or gaps): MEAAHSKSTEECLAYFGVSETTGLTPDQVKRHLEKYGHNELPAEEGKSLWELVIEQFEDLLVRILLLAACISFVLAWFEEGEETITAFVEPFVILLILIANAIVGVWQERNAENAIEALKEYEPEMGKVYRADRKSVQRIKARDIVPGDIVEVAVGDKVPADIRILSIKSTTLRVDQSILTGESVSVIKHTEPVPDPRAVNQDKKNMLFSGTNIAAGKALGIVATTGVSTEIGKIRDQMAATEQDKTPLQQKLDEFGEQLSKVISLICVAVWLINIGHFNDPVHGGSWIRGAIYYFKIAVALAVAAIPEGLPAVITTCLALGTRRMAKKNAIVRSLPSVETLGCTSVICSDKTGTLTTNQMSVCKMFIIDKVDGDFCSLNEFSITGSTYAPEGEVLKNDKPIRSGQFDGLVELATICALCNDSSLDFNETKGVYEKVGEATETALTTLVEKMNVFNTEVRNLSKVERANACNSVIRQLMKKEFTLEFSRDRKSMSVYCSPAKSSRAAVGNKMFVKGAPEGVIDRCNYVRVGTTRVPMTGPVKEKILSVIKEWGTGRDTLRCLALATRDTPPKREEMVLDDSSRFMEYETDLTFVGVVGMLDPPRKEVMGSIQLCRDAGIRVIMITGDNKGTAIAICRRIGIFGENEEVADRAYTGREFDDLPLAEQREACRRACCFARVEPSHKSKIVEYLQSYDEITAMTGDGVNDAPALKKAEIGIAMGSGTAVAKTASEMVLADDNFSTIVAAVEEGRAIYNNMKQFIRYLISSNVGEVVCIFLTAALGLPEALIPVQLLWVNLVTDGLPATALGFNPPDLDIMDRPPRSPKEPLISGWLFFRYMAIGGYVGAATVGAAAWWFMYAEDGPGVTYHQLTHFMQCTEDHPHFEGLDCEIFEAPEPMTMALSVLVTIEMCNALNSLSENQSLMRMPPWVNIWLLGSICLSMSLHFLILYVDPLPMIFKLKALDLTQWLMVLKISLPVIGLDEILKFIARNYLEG
native SERCA1a in DDM-solubilized rabbit sarco-endoplasmic reticulum membranes (rabbit), sequence (P04191 other isoform, or with tags, fused parts or gaps): as above

| Substance | IC50 of inhibition of the phosphoenzyme level, as told in the discussion (mol added SLN/mole of SERCA1a) [1] | IC50 of inhibition of the phosphoenzyme level, as told in the discussion (mol of added SLN/mole of SERCA1a) [2] | SLN:SERCA1a ratio at half-inhibition of the phosphoenzyme level (ratios 1:1 to 1:50) (mol SLN added per mole of SERCA1a) [3] | amplitude of the inhibition of the phosphoenzyme level (dose-response fit) [3] | SLN:SERCA1a ratio at half-inhibition of the phosphoenzyme level (ratios 1:1 to 1:50) (mol SLN added per mole of SERCA1a) [4] | amplitude of the inhibition of the phosphoenzyme level (dose-response fit) [4] | t1/2 of phosphorylation from [γ32P]ATP starting from a calcium-deprived state, Sarcolipin:SERCA1a 10:1 (6.8 without SLN) [4] |
| --- | --- | --- | --- | --- | --- | --- | --- |
| chemically synthesized non-palmitoylated rabbit sarcolipin (peptide) | 2.9 | 4.5 | 3.1 | 19% | 4.7 | 28.6% | 13.7 s |
| chemically synthesized S-palmitoylated rabbit sarcolipin (peptide) | 5.6 | 5 | 5.9 | 28.1% | 5.1 | 31.2% | 13.5 s |
